B1: FORN-pJB42: forskolin responsive enhancer element in combination with pJB42 minimal promoter, SEQ ID NO: 211 (nucleic acid)
DNA: AATAAAATATCTTTATTTTCATTACATCTGTGTGTTGGTTTTTTGTGTGCCATTGACGTCACGATTTGACGTCAACCATTGACGTCACGATTTGACGTCAACCATTGACGTCACGATTTGACGTCACGATTTGACGTCAACCATTGACTCACGATTTGACTCAACCATTGACTCACGATTTGACTCAACCATTGACTCACGATTTGACTCACGATTCTGACAAATTCAGTATAAAAGCTTGGGGCTGGGGCCGAGCACTGGGGACTTTGAGGGTGGCCAGGCCAGCGTAGGAGGCCAGCGTAGGATCCTGCTGGGAGCGGGGAACTGAGGGAAGCGACGCCGAGAAAGCAGGCGTACCACGGAGGGAGAGAAAAGCTCCGGAAGCCCAGCAGCGGCCACC
B2: SYNP-HYP-001: synthetic hypoxia-inducible promoter, four HRE2 and a CMV minimal promoter, SEQ ID NO: 3 (nucleic acid)
DNA: CTGCACGTACTGCACGTACTGCACGTACTGCACGTATGGGTACCGTCGACGATATCGGATCCAGGTCTATATAAGCAGAGCTCGTTTAGTGAACCGTCAGATCGCCTAGATACGCCATCCACGCTGTTTTGACCTCCATAGAAGATCGCCACC
B3: FORCSV-10: forskolin-inducible promoter, 5×cAMPRE and 3×AP1(2) TFBS with SV40-MP, SEQ ID NO: 6 (nucleic acid)
DNA: TGACGTCACGATTACCATTGACGTCACGATTACCATTGACGTCACGATTACCATTGACGTCACGATTACCATTGACGTCAGCGATTAAGATGACTCAGCGATTAAGATGACTCAGCGATTAAGATGACTCAGCGATTAAGATGACTCACTAGCCCGGGCTCGAGATCTGCGATCTGCATCTCAATTAGTCAGCAACCATAGTCCCGCCCCTAACTCCGCCCATCCCGCCCCTAACTCCGCCCAGTTCCGCCCATTCTCCGCCCCATCGCTGACTAATTTTTTTTATTTATGCAGAGGCCGAGGCCGCCTCGGCCTCTGAGCTATTCCAGAAGTAGTGAGGAGGCTTTTTTGGAGGCCTAGGCTTTTGCAAA
B4: FMP-02: forskolin-inducible promoter, 8×AP1(1) TFBS with MinTK, SEQ ID NO: 8 (nucleic acid)
DNA: TGAGTCAGATGATGCGTAGCTAGTAGTTGAGTCAGATGATGCGTAGCTAGTAGTTGAGTCAGATGATGCGTAGCTAGTAGTTGAGTCAGATGATGCGTAGCTAGTAGTTGAGTCAGATGATGCGTAGCTAGTAGTTGAGTCAGATGATGCGTAGCTAGTAGTTGAGTCAGATGATGCGTAGCTAGTAGTTGAGTCAGTAGTCGTATGCTGATGCGCAGTTAGCGTAGCTGAGGTACCGTCGACGATATCGGATCCTTCGCATATTAAGGTGACGCGTGTGGCCTCGAACACCGAGCGACCCTGCAGCGACCCGCTTAA
B5: TATA-m6a: forskolin responsive enhancer element in combination with TATA-m6A minimal promoter, SEQ ID NO: 209 (nucleic acid)
DNA: AATAAAATATCTTTATTTTCATTACATCTGTGTGTTGGTTTTTTGTGTGCCATTGACGTCACGATTTGACGTCAACCATTGACGTCACGATTTGACGTCAACCATTGACGTCACGATTTGACGTCACGATTTGACGTCAACCATTGACTCACGATTTGACTCAACCATTGACTCACGATTTGACTCAACCATTGACTCACGATTTGACTCACGATTTATAAAAGGCAGAGCTCGTTTAGTGAACCGAAGCTTGGACTAAAGCGGACTTGTCTCGAG

Key:
Format in all cases: cell-based, human
Pro10 cells [1] = test: Rep78 expression (western blot) from new forskolin promoter designs in Pro10 cells; settings: Pro10, 10 uM forskolin or DMSO, 24 hrs
Method: Each of the promoters were tested for their ability to induce expression of the Rep78 protein. To eliminate the expression of Rep52 the ATG start codon in Rep52 was mutated to an AGG. All constructs were synthesized by Genewiz, see sequence files for full plasmid.
Pro10 cells were cultured and transfected using lipofectamine 2000 as previously described herein above. 24 hrs after transfection 10 uM forskolin was added to the cells. Control wells were given DMSO as forskolin was dissolved in this carrier. After another 24 hrs the cells were then lysed and lysates were analyzed for Rep78 expression via western blot (previously described). The best performing promoters were the TATA-m6a, YB and pJB42 (FIG. 29). […] The rest of the promoters have some level of background which indicates leaky expression.

Pro10 cells [2] = test: Activation of FORN-pJB42 driving Rep78 by adenovirus helper functions; settings: with and without adenovirus helper functions, forskolin or DMSO
Method: The ability for the aforementioned helper functions to induce the activity of the best performing promoter FORN-pJB42 was next assessed. Transfections were carried out as previously described. Conditions were as follows: FORN-pJB42 controlling expression of Rep78 was transfected with and without the adenovirus helper functions. In addition, the transfected cells were also treated with forskolin at […] or vehicle DMSO control. Analysis of activity was as described in the previous section. […] However, it should be noted that full activity is not obtained until both the adenovirus helper functions and 10 μM forskolin were present.

HEK293-F cells [3] = test: Luciferase expression from hypoxia-inducible promoters in transiently transfected HEK293-F cells under hypoxia; settings: hypoxia 5% oxygen, 3, 5 and 24 hrs
Method: (§1) 40 ml of cells were grown in a 250 ml vented Erlenmeyer flask (Sigma-Aldrich CLS431144) at 37° C., 20% O2, 8% CO2 with agitation at 100 rpm. Cells were seeded as described in the manufacturer's instructions (300,000 cells/ml). HEK293-F were obtained from Thermofisher, R79007.
(§2) One day before transfection, the cells were counted using a haemocytometer and split to 500,000 cells/ml.
On the day of transfection, the cells are seeded to 1,000,000 cells/ml in 500 μl of appropriate medium (Freestyle 293 expression medium, 12338002) in a 24 well plate. 0.625 μg of DNA per well was then added to 10 μl of OptiMem medium (Thermofisher; 11058021) and incubated for 5 minutes at room temperature. […]
After transfection the cells were incubated for 24 hrs in normoxia conditions (20% oxygen) before being switched to a gas mix of 5% oxygen, 10% carbon dioxide and 85% nitrogen (hypoxia). […] Induction of the promoters was assessed by using luciferase activity after 3, 5 and 24 hrs in hypoxia.
Luciferase activity was measured using LARII (Dual Luciferase Reporter 1000 assay system, Promega, E1980).
Media was removed from the cells at the respective time point (0, 3, 5, 24 hrs after induction). […] 10 μl of supernatant was pipetted into white 96-well plate and luminescence measured by addition of 50 μl of LARII substrate. […]

HEK293-F cells [4] = test: Luciferase expression from forskolin-inducible promoters in HEK293-F cells after induction with forskolin; settings: 20 μM forskolin
Method: The forskolin-inducible promoters FORCSV-10, FOR-CMV-009, FMP-02 and FLP-01 were used to drive expression of luciferase in a PM-RQ vector in the suspension cell line HEK293-F. The tested promoters were synthesized directly upstream of the ATG of PM-RQ plasmid and the suspension cell lines were transiently transfected with the PM-RQ plasmid.
as §1, §2
On the day of transfection, the cells are seeded to 1,000,000 cells/ml in 500 μl of appropriate medium (Freestyle 293 expression medium, 12338002) in a 24 well plate. 0.625 μg of DNA per well was then added to 10 μl of OptiMem medium (Thermofisher; 11058021) and incubated for 5 minutes at room temperature.
Concurrently, 0.625 μl of Max reagent (Thermofisher, 16447100) was made up to 10 μl by addition of OptiMem and incubated for 5 minutes at room temperature. […]
24 hours after transfection, the promoters were induced by addition of 20 μM forskolin and luciferase activity was measured 0, 3, 5 and 24 hours after induction. Luciferase activity was measured as previously described.

Row | Molecule | Rep78 expression (western blot) (Pro10 cells [1]) | promoter strength relative to the other promoters (HEK293-F cells [4]) | other results
1 | B1 | no Rep78 expression in the absence of forskolin but strong expression on the presence | – | activation of the promoter driving Rep78 (Pro10 cells [2]): activated by the presence of the helper functions, even in the absence of forskolin
2 | B2 | – | – | promoter activity (luciferase) relative to the other promoters (HEK293-F cells [3]): stronger
3 | B3 | – | strongest | –
4 | B4 | – | weakest | –
5 | B5 | no Rep78 expression in the absence of forskolin but strong expression on the presence | – | –

Reference: patent US20230407326A1, “INDUCIBLE PROMOTER FOR VIRAL VECTOR PRODUCTION” (ASKLEPIOS BIOPHARMACEUTICAL, INC., priority 2020, published 2023)
